Results reported in the supplement of paper PMC10126150.
± gives the standard deviation of the averaged measurements.

Test system: ATP
Experiment: switch fluorescence ratio, 500 uM ATP over buffer (Cy3 cluster intensity, sum of 5 cycles each) (fold (ratio)); higher = stronger signal-on switching upon ATP binding; sequences stand for … in TCGTCGGCAGCGTCAGATGTGTATAAGAGACAGTTTTTTTTTTTTTTTTTTTTTTTTT…TC
Conditions: aptamer strand: ATP DNA aptamer (quencher-CACCTGGGGGAGTATTGCGGAGGAAGG + anchor), 100 nM annealed; ATP concentration: 500 uM
Outline: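 Between each of five buffer/ATP cycles, the flow-cell was stripped with NaOH and re-annealed. Each cycle imaged Cy3-labelled switching-strand clusters, annealed to 100 nM quencher-labelled ATP aptamer on a modified Illumina MiSeq flow-cell, first in selection buffer and then after 15 min with 500 uM ATP at 22 °C. The fluorescence ratio is summed target-cycle over summed buffer-cycle Cy3 intensity per cluster, averaged per switch-domain sequence, with clusters outside 100-1000 RFU excluded.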
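Also: ATP exposure 15 min at 22 °C before imaging.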

Row | Sequence | switch fluorescence ratio
1 | AAAGAAGACG | 1.0319 ± 0.00064
2 | TTTCTAATGG | 1.02 ± 0.026
3 | AGGGCAACTG | 1.07 ± 0.079
4 | TTTTACCGT | 0.996 ± 0.012
5 | ACTAGGGGTT | 1.23 ± 0.34
6 | ATCTTAGGGT | 0.978 ± 0.039
7 | CAATATTACA | 1.05 ± 0.016
8 | GGAAATATTA | 1.04 ± 0.04
9 | GGGGCGGCCC | 1.03 ± 0.049
10 | GCGGGAGGGG | 0.99 ± 0.054
11 | TGGGTAATGC | 1.27 ± 0.13
12 | TGGGGTTGAT | 0.968 ± 0.033
13 | CTAGGGCACA | 1.07 ± 0.1
14 | GGGCAAAGTA | 0.924 ± 0.039
15 | ATCGATCTGG | 1 ± 0.015
16 | ATGTCATGCG | 1.02 ± 0.045
17 | TATGGTGGTT | 1.12 ± 0.12
18 | TATAGGTTTT | 1 ± 0.081
19 | GAAGTCCGCG | 1.42 ± 0.077
20 | CTGGTATATC | 1.063 ± 0.0067
21 | CTTCGGTGTT | 0.9967 ± 0.0085
22 | GGGCCGTGGG | 0.992 ± 0.017
23 | TTGGACATTT | 0.999 ± 0.013

Row | Sequence | switch fluorescence ratio
24 | TCGTGGGGGT | 0.979 ± 0.045
25 | AGGGTGGGGT | 0.977 ± 0.043
26 | CGTGCGGCTG | 1.028 ± 0.0066
27 | GCTGGGGAAG | 1.02 ± 0.019
28 | TCGTATCGTA | 0.975 ± 0.013
29 | TACGGATACT | 1.27 ± 0.026
30 | GGGAGGATCG | 0.993 ± 0.069
31 | GGTGTTAGGC | 1.01 ± 0.032
32 | CTGGCATGGA | 1.01 ± 0.021
33 | CAGTGGGGGC | 1.05 ± 0.087
34 | ACACCGTCTA | 1.11 ± 0.023
35 | CTTTCGGGCT | 1.01 ± 0.026
36 | ACAAAAATAG | 0.993 ± 0.04
37 | GCATGGGGTT | 0.998 ± 0.031
38 | AGTAGTTTCG | 0.983 ± 0.037
39 | CCATAAGAAT | 1.01 ± 0.038
40 | TGGACGTTGA | 0.994 ± 0.033
41 | AATCATTTTT | 0.986 ± 0.026
42 | AAGAGGTCAG | 1.033 ± 0.0016
43 | AGTCGAGGGG | 1.01 ± 0.02
44 | TGAGTCGTTG | 0.972 ± 0.01
45 | GTTGGAATGT | 1.03 ± 0.018
46 | GCCAGCCGTT | 1.014 ± 0.0038

Row | Sequence | switch fluorescence ratio
47 | GGGGGGAGTG | 0.975 ± 0.029
48 | GTGAAGGAGC | 0.995 ± 0.017
49 | ATGTGTCTGT | 1.01 ± 0.017
50 | GTTGAGTTTT | 0.962 ± 0.03
51 | TTTTCATTTC | 1.01 ± 0.012
52 | ATGTAACTCG | 1.03 ± 0.044
53 | GTGTTTGGGT | 0.978 ± 0.03
54 | ATGGGGACTA | 1.0122 ± 0.00084
55 | TTAATGTGAT | 1 ± 0.012
56 | TTCGGGGGGA | 1.04 ± 0.09
57 | GAGGGGTCCT | 1.24 ± 0.39
58 | GGATCGAAGG | 0.96 ± 0.039
59 | AAATGCAGGT | 0.9908 ± 0.0061
60 | CTGGATGTTA | 0.999 ± 0.024
61 | CCCCTTGGGG | 1.036 ± 0.0031
62 | CCATAGGTCC | 1.017 ± 0.0071
63 | CGGGAATCTC | 1.085 ± 0.0081
64 | ATTTGCGGGC | 1.07 ± 0.11
65 | GGGAGAGCA | 0.9821 ± 0.0098
66 | ATCTGGGGTG | 1.02 ± 0.03
67 | ATTCTTTGG | 0.9676 ± 0.0024
68 | TGAGGCCCCG | 0.991 ± 0.025
69 | CTTAGGGAGA | 1 ± 0.035

Row | Sequence | switch fluorescence ratio
70 | TAAGGTGTGA | 1.02 ± 0.038
71 | TTGTTAACAG | 0.997 ± 0.018
72 | AGTTGAGAGG | 0.972 ± 0.0088
73 | TTGTGGTCTT | 0.9762 ± 0.0075
74 | AAGTAAATTT | 1.0226 ± 0.0004
75 | TGAATATTTT | 0.9787 ± 0.0076
76 | TGGGGTTATC | 0.9931 ± 0.0079
77 | AGGGGGGCTT | 1.01 ± 0.054
78 | GGATGATGA | 1.01 ± 0.061
79 | AGTATAGGGC | 0.989 ± 0.049
80 | GGTCCATGGG | 0.967 ± 0.035
81 | GCAGGTCAAT | 1.03 ± 0.018
82 | GCGAAAGTTT | 1.01 ± 0.013
83 | GGGGGAAAAG | 1.03 ± 0.1
84 | ATCTCGGGCT | 0.973 ± 0.042
85 | TTTTATGCGG | 0.974 ± 0.019
86 | GGGGGCTGGG | 0.992 ± 0.025
87 | TAATTGCTCG | 1.062 ± 0.0041
88 | GGTCATTTTT | 0.995 ± 0.021
89 | CCTTCAGAGG | 1.12 ± 0.033
90 | TTCAAAGTCA | 1.02
91 | TGACTTGCGT | 0.971 ± 0.042
92 | CCTGCGCACG | 3.98 ± 0.93

Row | Sequence | switch fluorescence ratio
93 | GGGTCCGAGA | 1.31 ± 0.4
94 | GATGGCGGGA | 1.02 ± 0.025
95 | GTGTTAGTCG | 1.02 ± 0.1
96 | GTGGAAAATT | 0.987 ± 0.018
97 | TTAAGGTCGT | 0.995 ± 0.034
98 | CTCGTGTTCG | 0.984 ± 0.013
99 | CCGCGACGGG | 1.69 ± 0.48
100 | CAGGGGAGGT | 1.02 ± 0.014
101 | GGGCATGTAG | 0.996 ± 0.058
102 | ATGTCAAAGC | 0.984 ± 0.063
103 | TAAAGGCGCG | 0.985 ± 0.012
104 | CGTAATTATG | 1.01 ± 0.03
105 | TCGCCTTTGG | 1.07 ± 0.072
106 | AAAGCCGCTG | 1.02 ± 0.033
107 | ATCCCCATGG | 1.91 ± 0.051
108 | GGGGGACTAG | 1.02 ± 0.024
109 | CAGGCGGGTG | 1.06 ± 0.11
110 | CCATTCTTCG | 1.08 ± 0.028
111 | TAACCTGGAG | 1.18 ± 0.028
112 | TTACGGTTGC | 0.9665 ± 0.0024
113 | TCCACCGTTC | 1.66 ± 0.77
114 | AATAAACGCT | 1.04 ± 0.074
115 | GGGTTCTTAT | 0.992 ± 0.027

Row | Sequence | switch fluorescence ratio
116 | GCCCTCCTGC | 1.16 ± 0.078
117 | TAAATCGGGT | 1 ± 0.013
118 | ATATAAGGGT | 1.02 ± 0.015
119 | TCCGCGGTTT | 1.23 ± 0.18
120 | TGCGTAAGGC | 1.18 ± 0.025
121 | CTATGATCTT | 0.992 ± 0.012
122 | GCACATGGTG | 1.05 ± 0.021
123 | TATTTTGGGG | 0.988 ± 0.019
124 | AAGGCGAGTA | 0.997 ± 0.017
125 | AATTGTATCA | 1 ± 0.054
126 | TGGGGAATCT | 1.02 ± 0.016
127 | GGAGGAAGTC | 0.975 ± 0.0024
128 | AACGGGCCCG | 1 ± 0.04
129 | ATCGTTTTTT | 0.973 ± 0.018
130 | GGTTTACAGC | 0.979 ± 0.012
131 | TGTCGGAGGG | 0.973 ± 0.065
132 | TTGCCTCGTT | 1.05 ± 0.023
133 | GGGACGGCGG | 1.004 ± 0.0087
134 | TGAGTGGACC | 0.992 ± 0.047
135 | TCGCGCCGGT | 1.005 ± 0.0062
136 | ATATTGGGGC | 0.993 ± 0.017
137 | ATCGTCAGAA | 0.969 ± 0.0068
138 | GCATGGCTGG | 1.017 ± 0.00012

Row | Sequence | switch fluorescence ratio
139 | GCGTATTTGC | 1.033 ± 0.01
140 | CAATTCAGGA | 1.01 ± 0.036
141 | AGCACTCTAT | 1.04 ± 0.024
142 | CTAACAGGGG | 1.426 ± 0.0043
143 | TGGGAAATCA | 0.993 ± 0.048
144 | TGGACTTGGA | 0.9869 ± 0.0031
145 | GGGATATGAT | 0.9829 ± 0.0029
146 | GCTTCTTGTT | 1 ± 0.015
147 | CGGTTGGGGT | 0.989 ± 0.0088
148 | GGGTAGGCGT | 0.999 ± 0.062
149 | CCAGGGGCGC | 1.04 ± 0.017
150 | GCTTTTTGCG | 1.01 ± 0.03
151 | CGGGTGTGGA | 1.05 ± 0.04
152 | TATTGCTCAC | 1.04 ± 0.02
153 | CGAGCTTTAG | 1.024 ± 0.0033
154 | TTGCGGCTGG | 0.974 ± 0.031
155 | GTCTGAGGCT | 0.9853 ± 0.0076
156 | GTCGGGGGGA | 0.993 ± 0.014
157 | GTGGTTGGCA | 0.968 ± 0.033
